Measurements published in the supplement of paper PMC9170038.

Tested on: MS2 coat protein
Experiment: apparent KD of MS2 coat protein; designed switch direction (-1 OFF switch, 1 ON switch): 1; higher = weaker reporter binding
In short: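 Designed RNA switches with common flanks were made on Illumina chips by stalled E. coli RNA polymerase. Titration with SNAP-549-labelled MS2 coat protein doubled from 0.7 or 1.5 nM up to 3 µM. Apparent KD is each design's median over clusters after curve-fitting normalised fluorescence.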

[1] = input ligand: microRNA oligo, concentration not stated
[2] = Eterna round: R95, input ligand: FMN 200 uM
[3] = Eterna round: R95, input ligand: microRNA oligo, concentration not stated
[4] = Eterna round: R95, input ligand: none

Sequence | apparent KD of MS2 coat protein (input ligand: FMN 200 uM) | apparent KD of MS2 coat protein [1] | apparent KD of MS2 coat protein (input ligand: none) | apparent KD of MS2 coat protein [2] | apparent KD of MS2 coat protein [3] | apparent KD of MS2 coat protein [4]
UGAACCGUCACAGGAUAUCAUGCGAAAAUUGCGUGAGAAGGGUGGAUGUUGUGUUCAAAGUUAUACAUGAGGAUCACCCAUGUU [SameState NG1 #46] (Eterna round: R96, puzzle: Same State NG 1) | 29.8 nM | 45.8 nM | 65.5 nM | – | – | –
UGAAUAGUCACAGGAUAUCAUGCGAAAAUUGCGUGAGAAGGGUGGAUGUUGUGCUCAAAGUGCUACAUGAGGAUCACCCAUGUU [SameState NG1 #42] (Eterna round: R96, puzzle: Same State NG 1) | 337 nM | 234 nM | 187 nM | – | – | –
UGAAUAGUUACAGGAUAUCAUGCGAAAAUUGCGUGAGAAGGGUGGGUGUUGUGCGCAAAGUGCUACAUGAGGAUCACCCAUGUU [SameState NG1 #39] (Eterna round: R96, puzzle: Same State NG 1) | 278 nM | 23.1 nM | 277 nM | – | – | –
UGAAUGAUGAUAGGAUAUACAUGAGGAAUCCUCGUAGAAGGAUCAUGACAUGAGGAUCACCCAUGUAGCGCUCCGUAGAGCGCA [JL SSNG1 1.20] (Eterna round: R96, puzzle: Same State NG 1) | 561 nM | 30.7 nM | 151 nM | – | – | –
UGACACACGGCAGGAUAUCGAUAGCAAAGCUAUCGAGAAGGGCCUCAUGUCGUGGAAACGUGACAUGAGGAUCACCCAUGUCGC [Omei SS(NG)1 Cv12] (Eterna round: R96, puzzle: Same State NG 1) | 72 nM | 12.6 nM | 26.6 nM | – | – | –
UGACACACGGCAGGAUAUCGAUUCCAAAGGAAUCGAGAAGGGCCUCAUGUCGUGGAAACGUGACAUGAGGAUCACCCAUGUCGC [Omei SS(NG)1 Cv16] (Eterna round: R96, puzzle: Same State NG 1) | 65 nM | 3.72 nM | 64.2 nM | – | – | –
UGCUAGUGGGUAGGAUAUUUAGGAUAUGGGAAAGACUAAGUCUGUAGGUCACCUAACCCAGAAGGAGAGAAGGACCCUUCAGCU [pwkr ssNG2 2FMN + F9.28] (Eterna round: R96, puzzle: Same State NG 2) | 1660 nM | 13.9 nM | 38.9 nM | – | – | –
UGGAUCUAGGCUUGCCUGGGUCCAUGUUGACAUGAGGAUCACCCAUGUGUAUUUUUUAAGCUUUUUGUUUGUCAACU [JL A Humble Attempt mod 9] (puzzle: Sensor for hsa-mir-208a) | – | – | – | 28.3 nM | 12.5 nM | 29.3 nM
UGGCUCAGACGAGGAUAUAUGUGGUCACAUGAGGAUCACCCAUGUCUCGAGCUUCGGCUCGAGGCAUAGAAGGCGUCUGAGCCU [SSNG2/5-A3] (Eterna round: R96, puzzle: Same State NG 2) | 200 nM | 7.4 nM | 148 nM | – | – | –
UGGCUCAGACUAGGAUAUAUGUGGUCACAUGAGGAUCACCCAUGUCUCGAGCUUCGGCUCGAGGCAUAGAAGGAGUCUGAGCCU [SSNG2/5-D3] (Eterna round: R96, puzzle: Same State NG 2) | 249 nM | 15.3 nM | 59.9 nM | – | – | –
UGGCUCAGACUAGGAUAUGAUCAUGGCGCUUCGGCGCAUACAUGAGGAUCACCCAUGUAAAGUGAUCAGAAGGAGUCUGAGCCU [SSNG2/7-C3] (Eterna round: R96, puzzle: Same State NG 2) | 14.2 nM | 10.6 nM | 19.7 nM | – | – | –
UGGCUCAGAGCAGGAUAUAUGUGAUCACAUGAGGAUCACCCAUGUCUCGAGCUUCGGCUCGAGACAUAGAAGGGCUCUGAGCCA [SSNG2/3-B2] (Eterna round: R96, puzzle: Same State NG 2) | 23.3 nM | 21.8 nM | 22.5 nM | – | – | –
UGGCUCAGAGCAGGAUAUAUGUGGUCACAUGAGGAUCACCCAUGUCUCGAGCUUCGGCUCGAGGCAUAGAAGGGCUCUGAGCCU [SSNG2/5-B3] (Eterna round: R96, puzzle: Same State NG 2) | 704 nM | 21.4 nM | 85.9 nM | – | – | –
UGGCUGGUGCUAGGAUAUGCAUGAGGCAUCCUCGUAGAAGGAGCACGACAUGAGGAUCACCCAUGUAGCCGUCCGUAGACGGCU [salish99_SSNG1_r04_010] (Eterna round: R96, puzzle: Same State NG 1) | 673 nM | 348 nM | 1060 nM | – | – | –
UGGUACAUGGGAGGAUAUCUCAUGGUGACAUGAGGAUCACCCAUGUAGUUGGUGCCGAAAGGCUGAGAGAAGGCCCAUGUACCU [JL SSNG1 3.76] (Eterna round: R96, puzzle: Same State NG 2) | 62.9 nM | 59.3 nM | 99.9 nM | – | – | –
UGUCCAGCCUGAGCUGGACAAAAGCAUGUACAUGAGGAUCACCCAUGUUCAUGUACAAGCUUUUUGCUCGUCUUACC [salish99_208a_r3_083] (puzzle: Sensor for hsa-mir-208a) | – | – | – | 464 nM | 15.9 nM | 610 nM

Sequence | apparent KD of MS2 coat protein (input ligand: FMN 200 uM) | apparent KD of MS2 coat protein [1] | apparent KD of MS2 coat protein (input ligand: none) | apparent KD of MS2 coat protein [2] | apparent KD of MS2 coat protein [3] | apparent KD of MS2 coat protein [4]
UGUCCAGCCUGAGCUGGACAAAAGCAUGUACAUGAGGAUCACCCAUGUUCAUGUACAAGCUUUUUGCUCGUCUUAGU [salish99_208a_r3_065] (puzzle: Sensor for hsa-mir-208a) | – | – | – | 489 nM | 13.8 nM | 619 nM
UGUUGGUUUUUGCUCGUUUUUUGUGUUGAACAUGAGGAUCACCCAUGUAUUGUACAGUCCAGUUUGGUAAUGGUGCG [JR_SHM208A_Sub046] (puzzle: Sensor for hsa-mir-208a) | – | – | – | 41.6 nM | 31.4 nM | 57.5 nM
UGUUGUAUUACAGGAUAUCUAGUAUUUUUAUUAAGAGAAGGGUAUUCACAUGAGGAUCACCCAUGUAUAUACGAGGAAGUUGUG [JMF's solution 54] (Eterna round: R96, puzzle: Same State NG 1) | – | 33.7 nM | – | – | – | –
UGUUGUAUUACAGGAUAUCUAUGAUUUUUAUUUAGAGAAGGGUAUUCACAUGAGGAUCACCCAUGUAUAUACGAGGAAGUUGUG [JMF's solution 11] (Eterna round: R96, puzzle: Same State NG 1) | – | 36.8 nM | – | – | – | –
UGUUGUAUUACAGGAUAUCUAUUAGUAUUAUUUAGAGAAGGGUAUUCACAUGAGGAUCACCCAUGUAUAUACGAGGAAGUUGUG [JMF's solution 89] (Eterna round: R96, puzzle: Same State NG 1) | – | 34.8 nM | – | – | – | –
UGUUGUAUUACAGGAUAUCUAUUAGUUUGAUUUAGAGAAGGGUAUUCACAUGAGGAUCACCCAUGUAUAUACGAGGAAGUUGUG [JMF's solution 94] (Eterna round: R96, puzzle: Same State NG 1) | – | 41.4 nM | – | – | – | –
UGUUGUAUUACAGGAUAUCUAUUAGUUUUAAUUAGAGAAGGGUAUUCACAUGAGGAUCACCCAUGUAUAUACGAGGAAGUUGUG [JMF's solution 98] (Eterna round: R96, puzzle: Same State NG 1) | – | 33.8 nM | – | – | – | –
UGUUGUAUUACAGGAUAUCUAUUAUUUUUGUUUAGAGAAGGGUAUUCACAUGAGGAUCACCCAUGUAUAUACGAGGAAGUUGUG [JMF's solution 24] (Eterna round: R96, puzzle: Same State NG 1) | – | 37.6 nM | – | – | – | –
UGUUGUAUUACAGGAUAUCUAUUGUUUUUAUAUAGAGAAGGGUAUUCACAUGAGGAUCACCCAUGUAUAUACGAGGAAGUUGUG [JMF's solution 84] (Eterna round: R96, puzzle: Same State NG 1) | – | 33.2 nM | – | – | – | –
UGUUGUAUUACAGGAUAUCUAUUGUUUUUAUGUAGAGAAGGGUAUUCACAUGAGGAUCACCCAUGUAUAUACGAGGAAGUUGUG [JMF's solution 85] (Eterna round: R96, puzzle: Same State NG 1) | 53.2 nM | 36.6 nM | 48.8 nM | – | – | –
UGUUGUUAAUUAGGAUAUGGUCACAUGAGGAUCACCCAUGUAAUGUCGAUGCUAUGUGGAUCCGAUCAGAAGGAAUGGCUAACA [SameState NG2 #95] (Eterna round: R96, puzzle: Same State NG 2) | 201 nM | 121 nM | 204 nM | – | – | –
UUAACAUGACGAGGAUAUCAUUUAUAUCUUGAUUGAGAAGGCGUUCUUUUUUUUACCUAACAUGAGGAUCACCCAUGUGACAGU [JR_SSNG1_Sub051] (Eterna round: R96, puzzle: Same State NG 1) | 12.4 nM | 13.7 nM | 17.6 nM | – | – | –
UUAACAUGAGGAUCACCCAUGUAUACGGAGUUUGCAAUUUGACAGGAUAUUGAAGAUCUAUAUAGCAAGAAGGGUCGUUAGUCU [JR_SSNG3_Sub006] (Eterna round: R96, puzzle: Same State NG 3) | 47.5 nM | 32.6 nM | 44.7 nM | – | – | –
UUAAGCCACGGGCAGGAUAUGUAUUAAUAUACAUGAGGAUCACCCAUGUGCAGGUGUAACACCUGACAGAAGGGCCAAUCGCGGC [Soondi - 5] (puzzle: Same State 2) | – | – | – | 35 nM | 177 nM | 286 nM
UUAAUAAAUCAAGGAUAUCACGUCGUUUAGACGUGAGAAGGUGAUCAUAACAUGAGGAUCACCCAUGUAUUACAUGAAUAUUAA [SSNG1/1-B3] (Eterna round: R96, puzzle: Same State NG 1) | 1180 nM | 778 nM | 1570 nM | – | – | –
